From the supplement of paper PMC9170038

System: K4 kissing-loop RNA reporter
Assay: apparent KD of K4 kissing-loop reporter; higher = weaker reporter binding
Conditions: Eterna round: R107
Method: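 RNA-MaP round R107: designed RNA switches with theophylline, tryptophan, arginine or FMN aptamers are transcribed on-chip within common flanks. They are titrated with a labelled K4 kissing-loop RNA reporter in RNA-MaP buffer (100 mM Tris pH 7.5, 80 mM KCl, 4 mM MgCl2), without ligand or with the indicated ligand. Median apparent KD per design.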

[1] = input ligand: theophylline 20 uM
[2] = input ligand: tryptophan 2.4 mM
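Note: bound reporter read as fluorescence of individual clusters on recovered sequencing chips by microscopy, with normalized cluster intensities fitted with a binding model.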

Row | Sequence | apparent KD of K4 kissing-loop reporter (input ligand: FMN 200 uM) [nM] | apparent KD of K4 kissing-loop reporter (input ligand: arginine 13.2 mM) [nM] | apparent KD of K4 kissing-loop reporter (input ligand: none) [nM] | apparent KD of K4 kissing-loop reporter [1] [nM] | apparent KD of K4 kissing-loop reporter [2] [nM]
1 | AAGCAGUCACUCGUAGCCAUCGAAGAUGGUCGAGGACCGGUACGGCCGCCACUCGGAGUGAUGUUCCGAAGACUGCAAAAUAAAA | 272 | 313 | 337 | 378 | 364
2 | AAGCAGUCUCUUGUAAUCAUCGAAGAUGAACGAGGACCGGUACGGCCGCCACUCGGAGUGAUGUUCCGAAGACUGCAAAAUAAAA [MatMod 16 - Jieux - Exclusion - Tryptophan A] | 650 | 494 | 676 | 873 | 219
3 | AAGCAUUCUUCGGAAUGCAGACCCGCUGAGGAGGAUAUGACGAAAGUCAGAAGGUCUCAGUGAUGUUGAGGCCUCCUCAAUGGUC [whbob_Ex_FMNA__2th181] | 212 | 160 | 155 | 160 | 162
4 | AAGCAUUCUUCGGAUUGCAGACCCGCUGAGGAGGAUAUGACGAAAGUCAGAAGGUUUCAGUGAUGUUGAGGCCUCCUCAAUGGUC [whbob_Ex_FMNA__2th183] | 280 | 259 | 250 | 255 | 263
5 | AAGCCAGUGAUGUUGGCAAAAUUUACUGAAGGAGCGCGUGAAAACGCAGGUAGGUCGCAGAACCUUGCCAACUAACACGAAAGUG [Ex Arginine A K4 20] | 261 | 237 | 253 | 469 | 251
6 | AAGCCCAGUGAUGUUGGAAGCGCGUACGAUACCAGCGAAUCGGAACGCCCUUGGCAGCGUACAGAGUUGGCGGAAGAUAGGACAG [theeternabot_sameState_KL_Theo_A_14] | 548 | 507 | 643 | 637 | 527
7 | AAGCUCAGCGUGACUCGAUAAGAGUCACAACGAGGACCGGUACGGCCGCCACUCGAAAUAAGGGAGUGAUGUUCUCGCUGAGCAA [#SwitchBubble 5 #StaticStem #K4Late] | 348 | 134 | 291 | 364 | 587
8 | AAGGAUCAGAGAGUGAUGUUCUCUAAUAAACGAGGACCGGUACGGCCGCCACUCGAAUAAGAUCCAGUCCUACGAAAAGUAGGAC [Omei inspired 6] | 431 | 338 | 485 | 613 | 132
9 | AAGGCCACGAGAAGGAGCGUGUUGUGGAGUGAUGUUCCAUUGUAGACCUAAGGUCUGCAAGCACAGGUAGGUCGCUCGUGGUCAA [whbob_SS_Arginine_B_2t149] | 127 | 123 | 139 | 138 | 127
10 | AAGGGCCGGGCGGCCGCCACUGGUCGUGUACACGUACUAACCAGUGAUGUUGGUAUAGUACGCGACAGGACCGGGCCCGGCCCAA [Exclusion - Tryptophan B (Freestyle 30)] | 405 | 359 | 445 | 297 | 236
11 | AAGGGCGGGACUUUCUCGCCGGAUAGAGAUACCAGCCCAGCAAAGGGCCCUUGGCAGCUCACUGACCUCAGUGAUGUUGAGGUUC [Soerrainat] | 295 | 240 | 242 | 199 | 266
12 | AAGGUAUCUAGAUACAUUACUGAACUAGAUACCAGCAUCGAAAGAUGCCCUUGGCAGCUAGCAGUGAUGUUGCUAGCAAUAAGAA [Design3] | 121 | 109 | 113 | 112 | 119
13 | AAGGUUGUGCAUGGGAGUGAUGUUCCCAAGCAGGAUAUCGCUCACGCGAGAAGGGCUUGCACAACCGCUCAAGAAACUUGAGCAA [Omei KL FMN A SS C v6] | 129 | 179 | 195 | 200 | 188
14 | AAGGUUGUGCAUGGGAGUGAUGUUCCCACGCAGGAUAUCGCUCUCGCGAGAAGGGCGAGCACAACCGCUCAAGAAACUUGAGCAA [Omei KL FMN A SS C v3] | 129 | 320 | 480 | 402 | 388
15 | AAGGUUGUGCAUGGGAGUGAUGUUCCCAGGCAGGAUAUCGCUCACGCGAGAAGGGCUAGCACAACCGCUCAAGAAACUUGAGCAA [Omei KL FMN A SS C v4] | 117 | 97.1 | 113 | 116 | 94.5
16 | AAGUAGCUCUCGGCCGCCACUCCUCAGUGAUGUUGAGAUAUUAAGAGACAAUUGUCUCAUAUAAAGAGGACCGGGAGAGCUACAA [AK5 SS Tryptophan B] | 445 | 384 | 439 | 460 | 133
17 | AAGUGAUGUUGUAGUGAUGUUGUGAUGUUGCAGGAUAUAUAGUGAUGUAGAAGGGUAAGUACUGAUGUUGUUAGUAAGUGAUGUU [tvvbmullin] | 106 | 50.1 | 89.9 | 76.6 | 77.8
18 | AAGUGAUGUUGUAGUGAUGUUGUGAUGUUGCAGGAUAUAUAGUGAUGUAGAAGGGUAAGUACUGAUUUUGUUUGUGAGUGAUGUU [zqqzzrmullin] | 92.8 | 40.1 | 73.8 | 61.1 | 67.8
19 | AAGUGAUGUUGUAGUGAUGUUGUGAUGUUGCAGGAUAUAUAGUGAUGUAGAAGGGUAAGUACUGAUUUUUUUUUUGAGUGAUGUU [ccbyzrmullin] | 96.4 | 43 | 74.5 | 53.9 | 73.8
20 | AAGUGAUGUUGUAGUGAUGUUGUGAUGUUGCAGGAUAUAUAGUGAUGUAGAAGGGUAUGUACUGAUUUUUUUUUUGAGUGAUGUU [awaqmullin] | 99.2 | 43 | 77.3 | 58.8 | 79.9
21 | AAGUGCCUCAAGAGGCAGUAUCUGCCUCAACGAGGACCGGUACGGCCGCCACUCGAAUAAUAGAGUGAUGUUCUAAGAGGCACAA [AK1.5 SS Tryptophan A] | 461 | 284 | 483 | 261 | 432
22 | AAGUGUCAUUAGACACACUGAUGUAUAAACUAGGAUAUGCUGAUAAGCAGAAGGAGUGAUGUUCCUUUCAUCAUCAGAAUUAAAU [KL-XFMN-A2] | 167 | 113 | 110 | 127 | 94.5

Row | Sequence | apparent KD of K4 kissing-loop reporter (input ligand: FMN 200 uM) [nM] | apparent KD of K4 kissing-loop reporter (input ligand: arginine 13.2 mM) [nM] | apparent KD of K4 kissing-loop reporter (input ligand: none) [nM] | apparent KD of K4 kissing-loop reporter [1] [nM] | apparent KD of K4 kissing-loop reporter [2] [nM]
23 | AAGUGUGUGGCGGCCGCCACUAGAAUCCAGUGAUGUUGGAAUAAUCAAAUAAAUAAUAAUAAACAUAGGACCGGGCCAUAUAGAA [Same State - Tryptophan B (Freestyle 1)] | 145 | 140 | 145 | 157 | 139
24 | AAGUGUGUGGCGGCCGCCACUAGAAUCCAGUGAUGUUGGAGAUAUCAGGUAACUGAUAUCCAACAUAGGACCGGGCCAUAUAGAA [Same State - Tryptophan B (Freestyle 11)] | 152 | 104 | 144 | 108 | 91.9
25 | AAGUGUGUGGCGGCCGCCACUAGUAUCCAGUGAUGUUGGAGAUAUCACGUAAGUGAUAUCCUACAUAGGACCGGGCCAUAUAGAA [Same State - Tryptophan B (Freestyle 20)] | 392 | 391 | 337 | 540 | 510
26 | AAGUGUUCUAGUGAUACCAGACAAUUUUAUUUUUUCUUUUUUGCUAAGUGAUGUUUAGCAGUCCCUUGGCAGCACUAUUUCACUA [JR_SSTheophyB_Sub018] | 129 | 109 | 106 | 147 | 128
27 | AAGUUGAACUGAAGGAGCGAGAAAUAGAAUGUAAGAAUAUAUGCUAGUGAUGUUAGAAAUUCUCAGGUAGGUCGCAGUAAGAUUU [V1.1] | 277 | 328 | 330 | 558 | 192
28 | AAUAAAAUCACGGCCGCCACUAAUGCUAGUAUUAGCAGUGAUGUUGCUAUGUAUAUUUUAUUUAAUAGGACCGGGUGAAUAUUUA [#23 K4 Tryptophan B Exclusion] | 332 | 294 | 346 | 308 | 224
29 | AAUAAAAUCACGGCCGCCACUGAAUAAUUGGUAAGUAGUGAUGUUACUUUACAUAUCUUAUUUAACAGGACCGGGUGAAUAUUUA [JR_ExcTryptoB_Sub008] | 134 | 92.4 | 116 | 103 | 131
30 | AAUAAAAUCACGGCCGCCACUGAAUAAUUGUUAAGUAGUGAUGUUACUUUACUUUUCUUAGUUAACAGGACCGGGUGAAUAUUUA [#18 K4 Tryptophan B Exclusion] | 113 | 101 | 107 | 101 | 190
31 | AAUAAAAUCACGGCCGCCACUGAUAUCCAUAUUAGGAGUGAUGUUCCUUUGACUAUAUAAUUUUACAGGACCGGGUGAAUAUUUA [JR_Nu_SSTryptoB_Sub027] | 104 | 143 | 120 | 131 | 90.8
32 | AAUAAAAUCACGGCCGCCACUGAUGUUAAUAUUAGCAGUGAUGUUGCUAUGUCGUUUUUAUUUAACAGGACCGGGUGAAUAUUUA [JR_ExcTryptoB_Sub013] | 183 | 182 | 171 | 188 | 154
33 | AAUAAGCGUGGAAGGAGCGUCGUCCAGUGAUGUUGGAGUUAGAUACCAGUGAUGUUGGUUAGGCAGGUAGGUCGCCGCAAAGCUU [Exclusion Arginine B Gf 7] | 96.8 | 67.6 | 90.8 | 86.3 | 81
34 | AAUACACUGUCGGCCGCCACUCUCGGCUGCAGUGUGCAGGGACAUGAGUGAUGUUUAUGUCGCGUGAGGACCGGGACUGAUGUAU [KL-SSTryp-B1 #analogue] | 326 | 257 | 312 | 326 | 209
35 | AAUACUAUCAGAAGGAGCGUGGAAUAUUCAUCUGUAUCUAAUACGAGUGAUGUUCGUAAUUCACAGGUAGGUCGCUGAUUAAUAA [whbob_Ex_Arginine_B_2th157] | 274 | 275 | 253 | 266 | 231
36 | AAUAGCCGUACUAGUGAUGUUAGUGUGGAUACCAGUUCAUGGACGAACCCUUGGCAGCCAUCAAAUAUAUAUGAGGGAUCAUCAC [theeternabot_exclusion_KL_Theo_A_47] | 295 | 268 | 309 | 410 | 320
37 | AAUAUACAGGGAAGGAGCGUCGUCCAGUGAUGUUGGAGUUAAAUACCAGUGAUGUUGGUUAGGCAGGUAGGUCGCCCUAAAGUAU [KL-XARG-B15] | 93.6 | 68.3 | 86.7 | 85.1 | 73.9
38 | AAUAUACAUUAAUUAAUUAAAGGUUCAGAAGGAGCGUGAAUUAACACAGGUAGGUCGCUGAGCGAGUGAUGUUCGCUAUAUACUA [JR_ExcArginiA_Sub004] | 61.4 | 73.1 | 69.5 | 79.9 | 58.1
39 | AAUAUAGUGAUGUUAUAUAAGAAGGAGUUACGAGGACCGGUACGGCCGCCACUCGAAACGAGUGAUGAUUUGGGAGAUUGGGUUG [SSTryptA.N] | 484 | 347 | 489 | 433 | 370
40 | AAUAUAUAGUGAAGGAGCGCGAUAAGCAGUGAUGUUGCUUAGCUAUUAUUCAUUAUUUUUACGCAGGUAGGUCGCACUAUAUAUA [JR_ExcArginiB_Sub014] | 138 | 128 | 144 | 133 | 139
41 | AAUAUAUAGUGAAGGAGCGCGUAUAGCAGUGAUGUUGCUUACUUAUUAUUAUAUUUUUUGACGCAGGUAGGUCGCACUAUAUAUA [JR_ExcArginiB_Sub021] | 242 | 181 | 268 | 227 | 215
42 | AAUAUAUUGUGAAGGAGCGCGAAAAGCAGUGAUGUUGCUUACUUACAAUUUAUUUUUUACACGCAGGUAGGUCGCACAAUAUAUA [JR_SSArginiB_Sub015] | 234 | 223 | 269 | 280 | 220
43 | AAUCCUUACGGAGUGAUGUUCCGUAGCGAUACCAGCCAUUGCGAUGGCCCUUGGCAGCGCUAUAAGCAUUGCUAUUAAGGGCCAA [Theo A Ex t7a] | 134 | 107 | 124 | 121 | 126
